B1: GST-K2 (N-terminally GST-tagged p27 K2 PxxP peptide) (peptide)
chain: DVSGSRPAAPLIGAPA
notes: also called K2 peptide; K2 site; not shown: glutathione S-transferase (GST) tag of the pGEX-KG vector, N-terminal
B2: F58-106 (Flag tagged K1-site containing peptide, p27 residues 58 to 106) (peptide)
peptide: RKWNFDFQNHKPLEGKYEWQEVEKGSLPEFYYRPPRPPKGACKVPAQES
notes: not shown: Flag tag

Assays:
[1] = target: T1, SH3 domain of Abl displayed on phage (UniProt P00519 61-121, limits assumed); assay: phage-ELISA on immobilised GST-K2
T1 construct: domain: SH3; also called Abl-SH3
T1 sequence (P00519 61-121 limits assumed): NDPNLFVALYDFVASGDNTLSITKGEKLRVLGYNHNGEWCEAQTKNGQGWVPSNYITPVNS

[2] = target: T2, SH3 domain of Yes displayed on phage (UniProt P07947 91-152, limits assumed); assay: phage-ELISA on immobilised GST-K2
T2 construct: domain: SH3; also called Yes-SH3
T2 sequence (P07947 91-152 limits assumed): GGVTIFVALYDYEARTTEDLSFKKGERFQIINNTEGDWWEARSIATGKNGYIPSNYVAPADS

[3] = target: T3, GST-Brk (full length GST-PTK6/Brk, SignalChem) (UniProt Q13882 1-451); assay: immunoprecipitation with GST antibodies, p27 immunoblot
T3 construct: mature; Bought enzyme; also called full length Brk; GST-tagged Brk; not shown: glutathione S-transferase (GST) tag
Excerpt: The reactions were probed by immunoblot analysis with pY88 and pY74 antibodies (FIG. 3C).

| binding result [1] | binding result [2] | binding result [3] | Binder |
| --- | --- | --- | --- |
| no binding | no binding |  | B1 |
|  |  | binds | B2 |
